Biological target: T1, mouse plasma ApoE (mouse (endogenous in BALB/c plasma), UniProt P08226 19-311)
T1 construct: apolipoprotein E, mouse, band of 36 kDa identified by nano-LC-MS/MS; also called apolipoprotein E; source: endogenous, BALB/c mouse plasma (in vitro) or blood of injected BALB/c mice (in vivo)
T1 sequence (looked up): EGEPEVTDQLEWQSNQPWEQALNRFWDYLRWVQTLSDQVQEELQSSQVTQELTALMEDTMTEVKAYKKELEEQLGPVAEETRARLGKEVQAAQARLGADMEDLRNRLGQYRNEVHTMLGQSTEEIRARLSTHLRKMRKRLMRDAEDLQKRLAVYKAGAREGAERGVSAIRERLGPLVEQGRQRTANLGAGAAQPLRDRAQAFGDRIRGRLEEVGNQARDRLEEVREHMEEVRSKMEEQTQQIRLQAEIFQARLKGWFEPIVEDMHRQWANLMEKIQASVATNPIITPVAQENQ
Assay: radioligand binding; SP-sLip (100 μL, 10 mg/mL) with mouse plasma (100 μL) at 37 °C for 1 h, then I-125 rhLRP1 (6 μCi, 0.5 μg) for 1 h at 37 °C; pellet at 19k RCF 30 min, three washes with cold PBS, gamma counter; plain sLip as control
Settings: one partner purified

B1: I-125 radiolabeled recombinant human LRP1 Cluster II Fc Chimera, Human IgG1 (Fc fusion, UniProt Q07954 852-1182, looked up)
chain: PQCQPGEFACANSRCIQERWKCDGDNDCLDNSDEAPALCHQHTCPSDRFKCENNRCIPNRWLCDGDNDCGNSEDESNATCSARTCPPNQFSCASGRCIPISWTCDLDDDCGDRSDESASCAYPTCFPLTQFTCNNGRCININWRCDNDNDCGDNSDEAGCSHSCSSTQFKCNSGRCIPEHWTCDGDNDCGDYSDETHANCTNQATRPPGGCHTDEFQCRLDGLCIPLRWRCDGDTDCMDSSDEKSCEGVTHVCDPSVKFGCKDSARCISKAWVCDGDNDCEDNSDEENCESLACRPPSHPCANNTSVCLPPDKLCDGNDDCGDGSDEGELC
modifications: I-125 radiolabel (residues not stated)
notes: Same bought protein as m6, radiolabeled; the labelling method is not described; also called I^125 radiolabeled rhLRP1; radiolabeled rhLRP1; source: bought: R&D system, then I-125 radiolabeled
- fold of rhLRP1 absorbed on SP-sLip over plain sLip, after preincubation with mouse plasma: 8.4 fold

Source: article PMC6687821, “Brain-targeted drug delivery by manipulating protein corona functions” (Nature Communications, 2019)
